Patent US20210346432A1 (Memorial Sloan Kettering, published 2021)
No end group written: not given here. *: point of attachment. Biotin = O=C1N[C@H]2[C@H](CS[C@H]2CCCCC(=O)*)N1

T1: ET140-p4 (human)
T1 construct: also called peptide 4
T1 peptide: Biotin-SGSGAGQCSQNEYFDSLLH

T2: ET140-p29 (human, cysteine pairing not given here)
T2 construct: also called peptide 29
T2 peptide: Biotin-SGSGSNTPPLTCQRYCNAS

T3: ET140-p5 (human)
T3 construct: also called peptide 5
T3 peptide: Biotin-SGSGGQCSQNEYFDSLLHA

T4: ET140-p15 (human, cysteine pairing not given here)
T4 construct: also called peptide 15
T4 peptide: Biotin-SGSGSLLHACIPCQLRCSS

T5: ET140-p20 (human, cysteine pairing not given here)
T5 construct: also called peptide 20
T5 peptide: Biotin-SGSGCIPCQLRCSSNTPPL

T6: ET140-p33 (human, cysteine pairing not given here)
T6 construct: also called peptide 33
T6 peptide: Biotin-SGSGPLTCQRYCNASVTNS

T7: ET140-p8 (human)
T7 construct: also called peptide 8
T7 peptide: Biotin-SGSGSQNEYFDSLLHACIP

T8: ET140-p18 (human, cysteine pairing not given here)
T8 construct: also called peptide 18
T8 peptide: Biotin-SGSGHACIPCQLRCSSNTP

T9: ET140-p21 (human, cysteine pairing not given here)
T9 construct: also called peptide 21
T9 peptide: Biotin-SGSGIPCQLRCSSNTPPLT

T10: ET140-p7 (human, cysteine pairing not given here)
T10 construct: also called peptide 7
T10 peptide: Biotin-SGSGCSQNEYFDSLLHACI

T11: ET140-p3 (human)
T11 construct: also called peptide 3
T11 peptide: Biotin-SGSGMAGQCSQNEYFDSLL

T12: ET140-p22 (human, cysteine pairing not given here)
T12 construct: also called peptide 22
T12 peptide: Biotin-SGSGPCQLRCSSNTPPLTC

T13: ET140-p16 (human, cysteine pairing not given here)
T13 construct: also called peptide 16
T13 peptide: Biotin-SGSGLLHACIPCQLRCSSN

T14: ET140-p28 (human, cysteine pairing not given here)
T14 construct: also called peptide 28
T14 peptide: Biotin-SGSGSSNTPPLTCQRYCNA

T15: ET140-p39 (human)
T15 construct: also called peptide 39
T15 peptide: Biotin-SGSGYCNASVTNSVKGTNA

T16: ET140-p30 (human, cysteine pairing not given here)
T16 construct: also called peptide 30
T16 peptide: Biotin-SGSGNTPPLTCQRYCNASV

T17: ET140-p32 (human, cysteine pairing not given here)
T17 construct: also called peptide 32
T17 peptide: Biotin-SGSGPPLTCQRYCNASVTN

T18: ET140-p27 (human, cysteine pairing not given here)
T18 construct: also called peptide 27
T18 peptide: Biotin-SGSGCSSNTPPLTCQRYCN

T19: ET140-p10 (human, cysteine pairing not given here)
T19 construct: also called peptide 10
T19 peptide: Biotin-SGSGNEYFDSLLHACIPCQ

T20: ET140-p23 (human, cysteine pairing not given here)
T20 construct: also called peptide 23
T20 peptide: Biotin-SGSGCQLRCSSNTPPLTCQ

T21: ET140-p12 (human, cysteine pairing not given here)
T21 construct: also called peptide 12
T21 peptide: Biotin-SGSGYFDSLLHACIPCQLR

T22: ET140-p35 (human, cysteine pairing not given here)
T22 construct: also called peptide 35
T22 peptide: Biotin-SGSGTCQRYCNASVTNSVK

T23: ET140-p17 (human, cysteine pairing not given here)
T23 construct: also called peptide 17
T23 peptide: Biotin-SGSGLHACIPCQLRCSSNT

T24: ET140-p11 (human, cysteine pairing not given here)
T24 construct: also called peptide 11; ET140-pll
T24 peptide: Biotin-SGSGEYFDSLLHACIPCQL


Columns and labels:
ET140-p4 = target: T1, ET140-p4; assay: peptide ELISA on streptavidin plate, antibody 1 ug/mL
Procedure: (§1) The peptides were coated onto Streptavidin plates at 2 ug/mL in PBST (PBS+0.05% Tween-20). After washing and blocking with 3% BSA. […] “mIgG1” used in all Examples represents that the variable region is fully human and the Fc part is mouse IgG1. Then HRP anti-mouse IgG detection antibody was added to each well. Finally, the color was developed using TMB substrate. A450 was recorded for data analysis.

ET140-p29 = target: T2, ET140-p29; assay: as above
Procedure: as §1

ET140-p5 [1] = target: T3, ET140-p5; assay: as above
Procedure: as §1

ET140-p15 [2] = target: T4, ET140-p15; assay: as above
Procedure: as §1

ET140-p20 [3] = target: T5, ET140-p20; assay: as above
Procedure: as §1

ET140-p33 = target: T6, ET140-p33; assay: as above
Procedure: as §1

ET140-p8 = target: T7, ET140-p8; assay: as above
Procedure: as §1

ET140-p18 = target: T8, ET140-p18; assay: as above
Procedure: as §1

ET140-p21 = target: T9, ET140-p21; assay: as above
Procedure: as §1

ET140-p7 = target: T10, ET140-p7; assay: as above
Procedure: as §1

ET140-p3 [4] = target: T11, ET140-p3; assay: as above
Procedure: as §1

ET140-p22 [5] = target: T12, ET140-p22; assay: as above
Procedure: as §1

ET140-p16 = target: T13, ET140-p16; assay: as above
Procedure: as §1

ET140-p28 [6] = target: T14, ET140-p28; assay: as above
Procedure: as §1

ET140-p39 = target: T15, ET140-p39; assay: as above
Procedure: as §1

ET140-p30 = target: T16, ET140-p30; assay: peptide ELISA, biotin peptide on streptavidin plate
Procedure: as §1

ET140-p5 [7] = target: T3, ET140-p5; assay: as above
Procedure: as §1

ET140-p32 = target: T17, ET140-p32; assay: as above
Procedure: as §1

ET140-p27 = target: T18, ET140-p27; assay: as above
Procedure: as §1

ET140-p15 [8] = target: T4, ET140-p15; assay: as above
Procedure: as §1

ET140-p20 [9] = target: T5, ET140-p20; assay: as above
Procedure: as §1

ET140-p10 = target: T19, ET140-p10; assay: as above
Procedure: as §1

ET140-p23 = target: T20, ET140-p23; assay: as above
Procedure: as §1

ET140-p3 [10] = target: T11, ET140-p3; assay: as above
Procedure: as §1

ET140-p22 [11] = target: T12, ET140-p22; assay: as above
Procedure: as §1

ET140-p12 = target: T21, ET140-p12; assay: as above
Procedure: as §1

ET140-p35 = target: T22, ET140-p35; assay: as above
Procedure: as §1

ET140-p17 = target: T23, ET140-p17; assay: as above
Procedure: as §1

ET140-p11 = target: T24, ET140-p11; assay: as above
Procedure: as §1

ET140-p28 [12] = target: T14, ET140-p28; assay: as above
Procedure: as §1

Binder | A450 (ET140-p4) | A450 (ET140-p29) | A450 (ET140-p5 [1]) | A450 (ET140-p15 [2]) | A450 (ET140-p20 [3]) | A450 (ET140-p33) | A450 (ET140-p8) | A450 (ET140-p18) | A450 (ET140-p21) | A450 (ET140-p7) | A450 (ET140-p3 [4]) | A450 (ET140-p22 [5]) | A450 (ET140-p16) | A450 (ET140-p28 [6]) | A450 (ET140-p39) | binding result (ET140-p30) | binding result (ET140-p5 [7]) | binding result (ET140-p32) | binding result (ET140-p27) | binding result (ET140-p15 [8]) | further results
ET140-153 mIgG1 (antibody, V domains shown, also called ET140-3 mIgG1; ET140-3) VH: QVQLVQSGAEVKKPGSSVKVSCKASGGTFSSYAISWVRQAPGQGLEWMGRIIPILGIANYAQKFQGRVTITADKSTSTAYMELSSLRSEDTAVYYCARGGYYSHDMWSEDWGQGTLVTVSS VL: LPVLTQPPSASGTPGQRVTISCSGRSSNIGSNSVNWYRQLPGAAPKLLIYSNNQRPPGVPVRFSGSKSGTSASLAISGLQSEDEATYYCATWDDNLNVHYVFGTGTKVTVLG | 0.094 | 0.109 | 0.08 | 0.328 | 0.087 | 0.116 | 0.178 | 0.097 | 0.089 | 0.381 | 0.086 | 0.131 | 0.266 | 0.109 | 0.072 |  |  |  |  |  | 
ET140-204 mIgG1 (antibody, V domains shown, also called ET140-54 mIgG1; ET140-54) VH: EVQLVQSGAEMKKPGASLKLSCKASGYTFIDYYVYWMRQAPGQGLESMGWINPNSGGTNYAQKFQGRVTMTRDTSISTAYMELSRLRSDDTAMYYCARSQRDGYMDYWGQGTLVTVSS VL: QSALTQPASVSASPGQSIAISCTGTSSDVGWYQQHPGKAPKLMIYEDSKRPSGVSNRFSGSKSGNTASLTISGLQAEDEADYYCSSNTRSSTLVFGGGTKLTVLG | 0.073 | 0.083 | 0.069 | 0.276 | 0.081 | 0.084 | 0.073 | 0.105 | 0.077 | 0.075 | 0.083 | 0.111 | 0.263 | 0.093 | 0.074 | no binding (tested: 1 ug/mL) | no binding (tested: 1 ug/mL) | no binding (tested: 1 ug/mL) | no binding (tested: 1 ug/mL) | no binding (tested: 1 ug/mL) | binding result (ET140-p20 [9]): no binding (tested: 1 ug/mL); binding result (ET140-p10): no binding (tested: 1 ug/mL); binding result (ET140-p23): no binding (tested: 1 ug/mL); binding result (ET140-p3 [10]): no binding (tested: 1 ug/mL); binding result (ET140-p22 [11]): no binding (tested: 1 ug/mL); binding result (ET140-p12): no binding (tested: 1 ug/mL); binding result (ET140-p35): no binding (tested: 1 ug/mL); binding result (ET140-p17): no binding (tested: 1 ug/mL); binding result (ET140-p11): no binding (tested: 1 ug/mL); binding result (ET140-p28 [12]): no binding (tested: 1 ug/mL)
ET140-174 mIgG1 (antibody, V domains shown, also called ET140-24 mIgG1; ET140-24) VH: EVQLVQSGAEVKKPGESLKISCKGSGYSFTSYWIGWVRQMPGKGLEWMGIIYPGDSDTRYSPSFQGHVTISADKSISTAYLQWSSLKASDTAMYYCARYSGSFDNWGQGTLVTVSS VL: not shown | 0.081 | 0.09 | 0.073 | 0.268 | 0.083 | 0.083 | 0.083 | 0.099 | 0.086 | 0.087 | 0.08 | 0.098 | 0.231 | 0.101 | 0.071 | no binding (tested: 1 ug/mL) | no binding (tested: 1 ug/mL) | no binding (tested: 1 ug/mL) | no binding (tested: 1 ug/mL) | no binding (tested: 1 ug/mL) | binding result (ET140-p20 [9]): no binding (tested: 1 ug/mL); binding result (ET140-p10): no binding (tested: 1 ug/mL); binding result (ET140-p23): no binding (tested: 1 ug/mL); binding result (ET140-p3 [10]): no binding (tested: 1 ug/mL); binding result (ET140-p22 [11]): no binding (tested: 1 ug/mL); binding result (ET140-p12): no binding (tested: 1 ug/mL); binding result (ET140-p35): no binding (tested: 1 ug/mL); binding result (ET140-p17): no binding (tested: 1 ug/mL); binding result (ET140-p11): no binding (tested: 1 ug/mL); binding result (ET140-p28 [12]): no binding (tested: 1 ug/mL)
